# Residue numbers refer to the chain shown, from its start. “And” between values parts separate entries of the source, which are not always exact repeats. Equal entries are not always repeated.
# T1: rhCD73 bound to his-tag magnet beads (human, UniProt P21589 27-549, limits assumed)
# T1 sequence: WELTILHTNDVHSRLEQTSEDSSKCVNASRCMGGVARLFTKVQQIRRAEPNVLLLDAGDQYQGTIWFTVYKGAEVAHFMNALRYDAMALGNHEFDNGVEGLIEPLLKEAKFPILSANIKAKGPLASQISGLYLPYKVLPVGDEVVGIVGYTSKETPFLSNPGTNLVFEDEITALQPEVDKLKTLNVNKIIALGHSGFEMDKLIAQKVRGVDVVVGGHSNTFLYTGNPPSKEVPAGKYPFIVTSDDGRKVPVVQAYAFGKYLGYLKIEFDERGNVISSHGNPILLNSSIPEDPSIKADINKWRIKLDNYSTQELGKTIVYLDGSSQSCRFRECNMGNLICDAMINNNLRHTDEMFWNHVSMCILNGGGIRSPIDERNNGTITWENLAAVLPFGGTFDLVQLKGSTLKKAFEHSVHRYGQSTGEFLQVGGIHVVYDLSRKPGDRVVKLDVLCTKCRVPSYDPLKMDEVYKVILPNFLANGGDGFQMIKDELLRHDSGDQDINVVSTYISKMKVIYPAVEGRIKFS
# T2: human CD73 on cells (Calu6, NCI-H292, SK-MEL-24, human tumor cell lines, human B and T cells) (human, UniProt P21589 27-549)
# T2 sequence: T1 sequence
# T3: N-terminal domain of hCD73 (residues 26-336 of human CD73), His-tagged (human, UniProt P21589 26-336)
# T3 construct: also called N-hCD73; N-hCD73-his
# T3 sequence: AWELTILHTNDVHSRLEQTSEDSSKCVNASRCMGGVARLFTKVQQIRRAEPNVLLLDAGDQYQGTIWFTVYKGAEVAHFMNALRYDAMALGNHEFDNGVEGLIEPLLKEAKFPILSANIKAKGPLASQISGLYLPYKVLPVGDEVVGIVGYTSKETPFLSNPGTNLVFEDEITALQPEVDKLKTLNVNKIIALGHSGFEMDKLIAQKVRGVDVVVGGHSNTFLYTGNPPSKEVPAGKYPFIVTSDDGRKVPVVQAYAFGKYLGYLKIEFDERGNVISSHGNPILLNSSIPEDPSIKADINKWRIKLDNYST
# T4: cynomolgus CD73 on transfected CHO cells (cynomolgus, UniProt P21589 27-549 (human entry))
# T4 construct: also called CHO-cynoCD73; cyno CD73 positive CHO cells
# T4 chain: T1 sequence with M199T, T350A, V466I
# B1: 11F11 (antibody, human IgG2, kappa, V domains shown)
# VH: QVQLVESGGGVVQPGRSLRLSCATSGFTFSNYGMHWVRQAPGKGLEWVAVILYDGSNKYYPDSVKGRFTISRDNSKNTLYLQMNSLRAEDTAVYYCARGGSSWYPDSFDIWGQGTMVTVSS
# VL: DIQMTQSPSSLSASVGDRVTITCRASQGISSWLAWYQQKPEKAPKSLIYAASSLQSGVPSRFSGSGSGTDFTLTISSLQPEDFATYYCQQYNSYPLTFGGGTKVEIKR
# notes: Human IgG2 from hybridoma
# How the values were obtained:
# [1] = biological target: T1, rhCD73 bound to his-tag magnet beads; experiment: cell-based or functional assay
# [2] = biological target: T2, human CD73 on cells (Calu6, NCI-H292, …); experiment: cell-based or functional assay
# [3] = biological target: T2, human CD73 on cells (Calu6, NCI-H292, …); experiment: cell-based or functional assay; remark: listed apart in the source
# [4] = biological target: T2, human CD73 on cells (Calu6, NCI-H292, …); experiment: cell-based or functional assay; remark: listed apart in the source
# [5] = biological target: T3, N-terminal domain of hCD73 (residues …); experiment: SPR, mAb captured on protein A
# Experimental: For these experiments, protein A (Pierce) was immobilized to a density of 3000 — 4000 RU on flow cells 1-4 of a CM5 sensor chip (GE Healthcare) using standard ethyl(dimethylaminopropyl) carbodiimide (EDC)/N-hydroxysuccinimide (NHS) chemistry, with ethanolamine blocking, in a running buffer of 0.01 M HEPES pH 7.4, 0.15 M NaCl, 3 mM EDTA, 0.005% v/v tween 20. […] The running buffer for the kinetic experiments was 10 mM sodium phosphate, 130 mM sodium chloride, 0.05% tween 20, pH 7.1. The surfaces were regenerated after each cycle using two 30 s pulses of 10 mM glycine pH 1.5 at a flow rate of 30 μl/min. Sensogram data was double-referenced and then fitted to a 1:1 Langmuir model using Biacore T100 evaluation software v2.0.4, to determine the association rate constant (ka), the dissociation rate constant (kd), and the equilibrium dissociation constant (KD).
# [6] = biological target: T4, cynomolgus CD73 on transfected CHO cells; experiment: flow cytometry, CHO-cynoCD73 cells
# Experimental: Titration binding curves were produced with CD73 antibodies on Calu6 (CD73 endogenous expressors; human pulmonary adenocarcinoma cell line), DMS114 (CD73 negative; human small cell lung cancer cell line), CHO-cynoCD73 (cynoCD73-transfected) and CHO-K1 (cynoCD73 negative), cells using Alexa Fluor® 647 Goat Anti-Human IgG (H+L) as a secondary antibody, Invitrogen Cat#A-21445, using the following method: 100000 cells were plated in 100 uL PBS+2% FBS per well and blocked for 20 min. Using a U-bottom 96-deep well plate, volumes of antibody and PBS+2% FBS were combined as dictated by Table 12 below.
# An 8-point serial dilution was performed by diluting a sixth of the volume (90 uL) into 450 μL PBS+2% FBS. The cell plate was spun down for 5 minutes at 1500 rpm. 100 uL of diluted antibody was added per well of the plate. 100 uL PBS+2% FBS were added to all other wells. […] The plates were spun down at 1500 rpm for 5 min and washed in 200 uL PBS +2% FBS per well. The plates were washed again, resuspended in 200 uL 2% FBS in PBS per well and the samples were run.
# [7] = biological target: T4, cynomolgus CD73 on transfected CHO cells; experiment: flow cytometry, CHO-cynoCD73 cells, anti-human IgG secondary; column 'Kd (ng/mL)'
# [8] = biological target: T2, human CD73 on cells (Calu6, NCI-H292, …); experiment: flow cytometry, Calu6 cells, anti-human IgG secondary (unstained -8.27, sec only 30.3)
# [9] = biological target: T4, cynomolgus CD73 on transfected CHO cells; experiment: flow cytometry, CHO-cynoCD73 cells, anti-human IgG secondary (unstained 4.81, sec only 18.5)
binder,measurement,setting,value
B1,"EC50 (nM), inhibition of bead-bound rhCD73 enzymatic activity",[1],3.98 nM
same,EC50 Calu6 inhibition,[2],0.7 nM
same,EC50 SKMEL24 inhibition,[2],3.15 nM
same,"Ymax, cAMP HTRF assay",[3],76 % of 100 nM 11F11
same,"EC50 (nM), CD73 internalization, Calu6, 2 h",[4],0.58 nM
same,"Ymax, CD73 internalization, Calu6, 2 h",[4],98 % of 100 nM 11F11
same,Kd,[5],1.6 nM and 0.56 nM
same,EC50,[6],0.58 nM
same,Kd,[7],0.0207 µg/mL
same,MFI at 0.07 ng/mL antibody,[8],788
same,MFI at 0.43 ng/mL antibody,[8],1290
same,MFI at 2.57 ng/mL antibody,[8],2250
same,MFI at 15.43 ng/mL antibody,[8],4830
same,MFI at 92.59 ng/mL antibody,[8],12100
same,MFI at 555.56 ng/mL antibody,[8],27400
same,MFI at 3333.33 ng/mL antibody,[8],29700
same,MFI at 20000 ng/mL antibody,[8],36600
same,MFI at 0.07 ng/mL antibody,[9],200
same,MFI at 0.43 ng/mL antibody,[9],342
same,MFI at 2.57 ng/mL antibody,[9],670
same,MFI at 15.43 ng/mL antibody,[9],1150
same,MFI at 92.59 ng/mL antibody,[9],1470
same,MFI at 555.56 ng/mL antibody,[9],1640
same,MFI at 3333.33 ng/mL antibody,[9],1990
same,MFI at 20000 ng/mL antibody,[9],2660

# From patent publication US20230051701A1 (Bristol-Myers Squibb, published 2023)
